Measurements reported in publication PMC5913127 (Scientific Reports, 2018).

B1: BAN2401: anti-Aβ clinical candidate antibody, Ph2; mouse analog mAb158 (antibody, chains of the INN, looked up, V domains shown)
VH: EVQLVESGGGLVQPGGSLRLSCSASGFTFSSFGMHWVRQAPGKGLEWVAYISSGSSTIYYGDTVKGRFTISRDNAKNSLFLQMSSLRAEDTAVYYCAREGGYYYGRSYYTMDYWGQGTTVTVSS
VL: DVVMTQSPLSLPVTPGAPASISCRSSQSIVHSNGNTYLEWYLQKPGQSPKLLIYKVSNRFSGVPDRFSGSGSGTDFTLRISRVEAEDVGIYYCFQGSHVPPTFGPGTKLEIK
B2: gantenerumab: anti-Aβ clinical candidate antibody, Ph3 (antibody, chains of the INN, looked up, V domains shown)
VH: QVELVESGGGLVQPGGSLRLSCAASGFTFSSYAMSWVRQAPGKGLEWVSAINASGTRTYYADSVKGRFTISRDNSKNTLYLQMNSLRAEDTAVYYCARGKGNTHKPYGYVRYFDVWGQGTLVTVSS
VL: DIVLTQSPATLSLSPGERATLSCRASQSVSSSYLAWYQQKPGQAPRLLIYGASSRATGVPARFSGSGSGTDFTLTISSLEPEDFATYYCLQIYNMPITFGQGTKVEIK
B3: ^chgantenerumab: murine chimeric IgG2a/kappa analog with the variable domains of gantenerumab (antibody, chains of the INN, looked up, V domains shown)
VH: B2 VH
VL: B2 VL
modifications: murine chimeric IgG2a/kappa

Experiments:
Aβ (Monomer, Aggregate) = conditions: A = aggregate, M = monomer; ref [9]–[19],[54] as given per antibody in column Ref. of Table 1; cited from earlier work
Aβ1-40 = experiment: ELISA, binding of Fab fragments to biotinylated Aβ1-40 on streptavidin-coated plates; conditions: papain-generated Fab fragments, Aβ1-40-Lys-Biotin 1 μg/mL on streptavidin plates, average of two measurements
Experimental: For binding studies with Fab fragments, biotin-conjugated Aβ1-40 (Aβ1-40-Lys-Biotin; AnaSpec) was captured on streptavidin-coated plates (Thermo Fisher Scientific) by incubating 50 μL/well of the peptide at a concentration of 1 μg/mL in Assay Buffer (PBS containing 1% bovine serum albumin (BSA)) for 1 h at room temperature. Plates were washed with Wash Buffer (PBS containing 0.05% Tween-20) and blocked for 1 h at room temperature with Blocking Buffer (PBS containing 1% BSA). Antibodies or Fabs were serially diluted to the indicated concentrations in Assay Buffer, and 50 μL/well were added to plates in duplicate wells and incubated for 2 h at room temperature. Plates were washed three times with Wash Buffer, and bound antibodies or Fabs were detected using a horseradish peroxidase (HRP)-conjugated goat anti-mouse polyclonal secondary antibody (Jackson ImmunoResearch), followed by measurement of captured HRP by incubation with 1-Step TMB substrate (Thermo Fisher Scientific) following the manufacturer’s instructions.

monomeric Aβ1-40-biotin = experiment: SPR, Fab fragments binding to surface-captured Aβ1-40-biotin; conditions: SPR Biacore T200
Experimental: Figure 2 Surface plasmon resonance analysis of the binding of anti-Aβ antibody Fab fragments to Aβ1-40-biotin immobilized on a biotin-capture sensor chip surface. […] Fabs were injected over an Aβ1-40-biotin coated sensor chip for 2 min in (a) and 3 min in (b–d), where the rising response describes the approach to steady state binding and beyond which the response drops due to dissociation of the Fabs.
Binding kinetics and affinity measurements were performed with a Biacore T200 instrument (GE Healthcare). Aβ1-40-biotin was captured on a Biotin CAPture chip (GE Healthcare) at 3–7 pg/mm^2 from solutions at 10–20 ng/mL in Biacore buffer (10 mM HEPES, pH 7.2, 150 mM NaCl, 3.4 mM EDTA, 0.05% BSA, 0.005% surfactant P20) using reagents and protocols provided by the manufacturer. […] Antibody Fab fragments were injected for 2-3 min at 30 μL/min and a range of concentrations in Biacore buffer, as indicated in the Fig. 2 legend, and the binding response relative to a reference sensor with no Aβ1-40-biotin was recorded. Data were analyzed with Biacore T200 Evaluation Software v3.0 using a 1:1 binding model.

soluble Aβ1-28 = experiment: SPR, soluble Aβ1-28 binding to surface-captured intact antibody
Experimental: Analysis of A binding kinetics using surface plasmon resonance (SPR)
To identify if surface immobilization through C -terminal biotin affects the bi nding of antibodies targeting the N terminus, a separate experiment was performed, in which the binding of soluble Aβ1-28 to surface-captured antibody was measured (Fig. S1). This truncated form of A β was used to minimize aggregation and contains the full epitope for all antibodies tested (Table 1). Intact antibody was captured at 100 -600 RU on a CM5 chip prepared with mouse antibody capture reagent (GE Healthcare), and the binding response of Aβ1-28 was measured relative to a reference sensor with no anti -Aβ antibody. In this assay
Surface plasmon resonance analysis of A1-28 binding to anti-A antibodies immobilized on a muIgG -capture sensor chip surface.
corresponding fits to a 1:1 binding model (red curves).
up to 30 µM. Kinetics and affinity constants determined are listed in (e).

tetrameric Aβ1-15 MAP = experiment: ELISA with multi-antigen peptides, tetramer; assay type: binding; conditions: result in words
Experimental: (§1) Aβ peptide binding to anti-Aβ antibodies measured by isothermal titration calorimetry (ITC). Titration of mAb with Aβ1-28 peptide. […]
(§2) mAb:Aβ ratio. The solid line is the fit to a two-site binding model (2 Aβ peptides binding to 1 mAb). The average KD values were calculated from […]
(§3) ELISA of binding of anti-Aβ antibodies to bivalent and tetravalent multi-antigen peptides Biotinylated Aβ1-15 multivalent multi-antigen peptides (MAPs) based on branched lysine residues were custom synthesized and purified (LifeTein). […]
(§4) goat anti-mouse IgG Fcγ fragment-specific antibody (Jackson ImmunoResearch) in Coating Buffer. The coated plates were washed, blocked as described in Methods, and incubated with serial dilutions of dimeric or tetrameric biotinylated Aβ1-15 MAP in Blocking Buffer at the indicated concent rations in […]
(§5) (1 picture or pasted object on this page, not shown here)
(§6) Figure S5. Binding of anti-Aβ antibodies to dimeric and tetrameric Aβ as assessed by ELISA. (a) Design of biotin-conjugated Aβ1-15 multivalent multi-antigen peptides (MAPs). Binding of anti-Aβ antibodies to MAPs with Aβ1-15x2 dimer (b) and Aβ1-15x4 tetramer (c).

Aβ1-40 fibrils = experiment: Negative-stain EM of fibrils with gold-conjugated antibodies; assay type: binding; conditions: fibril-associated 10-nm gold particles (≤10 nm to fibril) per μm^2; 100 images; ^chaducanumab higher
Experimental: Figure 3 Negative-stain electron microscopy of Aβ1-40 fibrils incubated with gold-conjugated anti-Aβ antibodies. […] 100 images were collected for each sample. A representative image for each data set is shown. Scale bars are 100 nm. (e) Labeling densities were calculated as the number of fibril-associated gold particles (distance of ≤10 nm to fibril) per 1 μm^2 for each image, with mean ± SD for each group. The differences in the gold-labeled antibodies binding to Aβ fibrils were tested with a one-way ANOVA.
(§7) Aβ1-40 and Aβ1-42 peptides (AnaSpec) were dissolved in 5 M guanidine-HCl, 50 mM Tris-HCl, pH 8.0 at a concentration of 1 mg/mL. For growth of the Aβ1-40 fibrils, the solution was dialyzed (dialysis tubes, 1 kDa cutoff, GE Healthcare) against buffer (100 mM Na2HPO4, pH 8, 0.01% NaN3) for 4–6 h, then sonicated and agitated based on protocols described by Petkova and colleagues. […]
(§8) A 5-μL aliquot of Aβ1-40 or Aβ1-42 fibril sample (1 mg/mL) was adsorbed for 1 min on a glow-discharged carbon-coated copper grid. […] All quantifications were done using the Visiopharm image analysis software. Gold-conjugated anti-Aβ antibodies and Aβ1-40 or Aβ1-42 fibrils were detected with a customized algorithm. […] The data were subjected to a D’Agostino & Pearson normality test, and P-values were subsequently calculated using a Kruskal-Wallis one-way analysis of variance (ANOVA).

fibrillar Aβ1-42 = experiment: ELISA, binding of antibodies to immobilized Aβ1-42 fibrils; conditions: mIgG2a chimeric antibodies on fibrillar Aβ1-42 coated at 2.5 μg/mL, 2 h room temperature, average of two measurements, read-out: mAb binding aggregated Aβ1-42 (EC50)
Experimental: For binding of antibodies to immobilized Aβ, 96-well microplates (Nunc Maxisorp; Thermo Fisher Scientific) were coated with 50 μL/well of fibrillar Aβ1-42 peptide at 2.5 μg/mL overnight at 4 °C in Coating Buffer (15 mM Na2CO3, 35 mM NaHCO3, pH 9.6). […] Plates were washed with Wash Buffer (PBS containing 0.05% Tween-20) and blocked for 1 h at room temperature with Blocking Buffer (PBS containing 1% BSA). Antibodies or Fabs were serially diluted to the indicated concentrations in Assay Buffer, and 50 μL/well were added to plates in duplicate wells and incubated for 2 h at room temperature. Plates were washed three times with Wash Buffer, and bound antibodies or Fabs were detected using a horseradish peroxidase (HRP)-conjugated goat anti-mouse polyclonal secondary antibody (Jackson ImmunoResearch), followed by measurement of captured HRP by incubation with 1-Step TMB substrate (Thermo Fisher Scientific) following the manufacturer’s instructions.

dimeric Aβ1-15 MAP = experiment: ELISA with multi-antigen peptides, dimer; assay type: binding; conditions: result in words
Experimental: as §1, §2, §3, §4, §5, §6

Aβ1-42 fibrils = experiment: Negative-stain EM of fibrils with gold-conjugated antibodies; assay type: binding; conditions: fibril-associated gold particles per μm^2; 100 images; chaducanumab higher
Experimental: as §7, with “colleagues. For Aβ1-42 fibrils, the dialysis buffer was supplemented with 100 mM NaCl and 100 μM ZnCl2 to decrease fibril polymorphism, as previously described. All Aβ fibrils were grown at 24 °C for 3 days.” for “colleagues.”
as §8, with “(ANOVA). […]” for “(ANOVA).”
100 images were collected for each sample. […] (e) Labeling densities were calculated as the number of fibril-associated gold particles per µm2 for each image with mean ± SD for each group, as described in Fig 3. Quantification of the number of gold particles that […]

Aβ1-40 monomer = experiment: ELISA-based competition assay: antibody binding to immobilized oligomeric Aβ1-42 competed by free monomeric Aβ1-40; conditions: immobilized oligomeric Aβ1-42 2.5 μg/mL, antibody 0.4 nM, 2 h room temperature, mean of duplicate wells
Experimental: Finally, we determined the binding of Fab fragments of the antibodies to Aβ1-40 (Fig. 1d).
To measure competition by soluble monomeric Aβ1-40, plates were coated with Aβ1-42 peptide at 2.5 μg/mL as above. In this case the oligomeric preparation of […] was used as the substrate to ensure sufficient signal with each test antibody. […] The plates were incubated at room temperature for 2 h, and bound antibody was detected with an HRP-conjugated goat anti-mouse polyclonal secondary antibody followed by measurement of HRP activity using 1-Step TMB substrate as described above. All data points are the mean of duplicate wells.

monomeric Aβ1-40 = conditions: read-out: mAb binding soluble Aβ1-40 (EC50); ELISA; monomeric biotinylated Aβ1-40 on captured antibody (5 μg/mL); average of two measurements
Experimental: For preparation of monomeric Aβ peptides, the Aβ HFIP film was dissolved in dimethyl sulfoxide (DMSO) at a concentration of 1 mg/mL then diluted to the target concentration in assay buffers and used immediately.
To measure binding of soluble monomeric Aβ1-40 peptide to immobilized antibodies, plates were coated with 50 μL/well of 5 μg/mL AffiniPure goat anti-mouse IgG Fcγ fragment-specific antibody (Jackson ImmunoResearch) in Coating Buffer. […] Plates were incubated at room temperature for 1 h, washed 3 times with Wash Buffer, incubated with serially diluted monomeric biotin-conjugated Aβ1-40 (Aβ1-40-Lys-Biotin; AnaSpec) in Blocking Buffer at the indicated concentrations, and washed 3 times with Wash Buffer. Binding was detected using HRP-conjugated streptavidin (Thermo Fisher Scientific) followed by incubation with 1-Step TMB substrate.

Aβ1-16 peptide = experiment: Microscale thermophoresis (MST); assay type: binding; conditions: MST in solution; 5-TAMRA-labeled Aβ1-16; PBS, Triton X-100; average of three replicates
[1] = Fab binding to Aβ1-40-biotin captured at 3–7 pg/mm^2, 1:1 binding model

Molecule | Aβ selectivity (Monomer, Aggregate) (Aβ (Monomer, Aggregate)) | EC50 (Aβ1-40) [nM] | Association rate, ka (monomeric Aβ1-40-biotin; [1]) [M⁻¹ s⁻¹] | Dissociation rate, kd (monomeric Aβ1-40-biotin; [1]) [s⁻¹] | Kd (monomeric Aβ1-40-biotin; Fab binding to Aβ1-40-biotin, ^chaducanumab from steady state fit, read-out: Equilibrium affinity, KD) [nM] | decrease in affinity using soluble Aβ versus immobilized Aβ1-40 (soluble Aβ1-28; comparison with Table 2) [fold] | decrease in association rate using soluble Aβ (soluble Aβ1-28; comparison with immobilized Aβ1-40) [fold] | Kd (soluble Aβ1-28; intact antibody captured at 100-600 RU on CM5 mouse antibody capture chip, 1:1 binding model, read-out: affinity of soluble Aβ1-28 for antibody) [nM] | affinity for tetrameric Aβ1-15 MAP (tetrameric Aβ1-15 MAP) | labeling density of ^chaducanumab compared to the named antibody (Aβ1-40 fibrils) [fold] | EC50 (fibrillar Aβ1-42) [nM] | affinity for dimeric Aβ1-15 MAP (dimeric Aβ1-15 MAP) | labeling density of chaducanumab compared to the named antibody (Aβ1-42 fibrils) [fold] | IC50 (Aβ1-40 monomer) [nM] | EC50 (monomeric Aβ1-40) [nM] | Kd (Aβ1-16 peptide) [nM]
B1 | A ≫ M | – | – | – | – | – | – | – | – | – | – | – | – | – | – | –
B2 | – | 5.9 | – | – | – | – | – | – | – | – | – | – | – | – | – | –
B3 | – | 5.9 | 660000 | 0.015 | 23 | > 50 | 20 | ~1000 | sub-nanomolar | 3.6 | 0.3 | sub-nanomolar | 3.1 | 330 | 300 | 97
